This data set has as its system HphI restriction endonuclease (Haemophilus parahaemolyticus). Description: cleavage_in_vitro. The note with it: crude extract cleaves lambda DNA; pAGR3-Rg1 clones in ER2252 about 750 units/g.

In the case of lambda DNA, the activity (units/g cells) was 5000.
